Laboratory results as given in patent US20200353078A1 (AstraZeneca / MedImmune, published 2020).
Read-outs that look alike come from different tables or passages of the source.

B1: Human IL-33 Flag®His (ligand)
chain: SITGISPITEYLASLSTYNDQSITFALEDESYEIYVEDLKKDEKKDKVLLSYYESQHPSNESGDGVDGKMLMVTLSPTKDFWLHANNKEHSVELHKCEKPLPDQAFFVLHNMHSNCVSFECKTDPGVFIGVKDNHLALIKVDSSENLCTENILFKLSETNPAFLYKVVGAADYKDDDDKAAHHHHHHHHHH
notes: Mature IL-33 with C-terminal FLAG 10xHis tag, from E. coli; biotinylated via free cysteines where used biotinylated; also called Mature Human IL-33_FH; human IL-33 FH
B2: IL330004 IgG1 (antibody, V domains shown)
VH: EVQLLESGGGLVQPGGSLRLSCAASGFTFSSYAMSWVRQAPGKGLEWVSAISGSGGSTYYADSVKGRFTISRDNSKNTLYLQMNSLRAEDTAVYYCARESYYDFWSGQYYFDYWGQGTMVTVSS
VL: SYELTQPPSVSVSPGQTASISCSGDKLGDKFASWYQQKPGQSPVLIIYQDRKRPSGIPERFSGSNSGNTATLTISGTQTTDEADYYCQAWDGSLYVFGTGTKLTVL
notes: Human IgG1, lambda constant
B3: 33_640087-7B IgG1 (antibody, V domains shown)
VH: EVQLLESGGGLVQPGGSLRLSCAASGFTFSSYAMSWVRQAPGKGLEWVSGISAIDQSTYYADSVKGRFTISRDNSKNTLYLQMNSLRAEDTAVYYCARQKFMQLWGGGLRYPFGYWGQGTMVTVSS
VL: SYVLTQPPSVSVSPGQTASITCSGEGMGDKYAAWYQQKPGQSPVLVIYRDTKRPSGIPERFSGSNSGNTATLTISGTQAMDEADYYCGVIQDNTGVFGGGTKLTVL
notes: IgG1

Legend:
33v20064 IgG1 [1] = target: T1, 33v20064 IgG1; test: HTRF: unlabelled test protein competes with biotinylated human IL33-01 for DyLight labelled 33v20064 IgG
T1 construct: IgG1; also called ZZ1EBX-E05
T1 sequence (VL, as listed by the source): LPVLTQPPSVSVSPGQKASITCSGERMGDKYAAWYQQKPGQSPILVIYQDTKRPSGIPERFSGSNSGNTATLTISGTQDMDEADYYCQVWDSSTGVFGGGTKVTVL
Description: (§1) Human, cyno and mouse IL-33 FLAG® His (described in Example 1) were tested for inhibition of human IL-33 binding to DyLight labelled 33v20064 by adding 5 microlitres of each dilution of IL-33 sample to a 384 well low volume assay plate (Costar, 3673). […] This was followed by the addition of 2.5 microlitres of a solution containing 1.2 nM biotinylated human IL-33-01 combined with 1.5 nM streptavidin cryptate detection (Cisbio International, 610SAKLB). All dilutions were performed in assay buffer containing 0.8 M potassium fluoride (VWR, 26820.236) and 0.1% bovine serum albumin (BSA, PAA, K05-013) in Dulbeccos PBS (Invitrogen, 14190185). Assay plates were incubated for 1 hour at room temperature and time resolved fluorescence was read at 620 nm and 665 nm emission wavelengths using an EnVision plate reader (Perkin Elmer). Data were analysed by calculating the 665/620 nm ratio followed by the % Delta F values for each sample. The 665/620 nm ratio was used to correct for sample interference using Equation 1. The % Delta F for each sample was then calculated using Equation 2. The negative control (non-specific binding) was defined by replacing biotinylated human IL-33 combined with streptavidin cryptate detection with streptavidin cryptate detection only. […] IC₅₀ values were determined using GraphPad Prism software by curve fitting using a four-parameter logistic equation (Equation 4).

33v20064 IgG1 [2] = target: T1, 33v20064 IgG1; test: as above; remark: listed apart in the source
Description: as §1

33_640087-7B IgG1 = target: B3; test: HTRF: unlabelled test protein competes with biotinylated human IL33-01 for DyLight650 labelled 33_640087-7B IgG
Description: Human, cyno and mouse IL-33 FLAG® His (described in Example 1 and Table 21), Human IL-1 alpha and IL-1 beta (R&D Systems) (Table 21) or rat IL-33 (GenScript) were tested for inhibition of human IL-33 binding to DyLight650 labelled 33_640087-7B or DyLight650 labelled 33_640237-2B by adding 5 microlitres of each dilution of sample to a 384 well low volume assay plate (Costar, 3673). […] This was followed by the addition of 2.5 microlitres of a solution containing 0.12 nM biotinylated human IL-33-01 combined with 0.75 nM streptavidin cryptate detection (Cisbio International, 610SAKLB). All dilutions were performed in assay buffer containing 0.8 M potassium fluoride (VWR, 26820.236) and 0.1% bovine serum albumin (BSA, PAA, K05-013) in Dulbeccos PBS (Invitrogen, 14190185). Assay plates were incubated for 4 hours at room temperature followed by 18 hours at 4 degrees Celsius and time resolved fluorescence was read at 620 nm and 665 nm emission wavelengths using an EnVision plate reader (Perkin Elmer). Data were analysed by calculating the 665/620 nm ratio followed by the % Delta F values for each sample. The 665/620 nm ratio was used to correct for sample interference using Equation 1. The % Delta F for each sample was then calculated using Equation 2. […] IC₅₀ values were determined using GraphPad Prism software by curve fitting using a four-parameter logistic equation (Equation 4).

33_640237-2B IgG1 = target: T2, 33_640237-2B IgG1; test: HTRF: unlabelled test protein competes with biotinylated human IL33-01 for DyLight650 labelled 33_640237-2B IgG
T2 construct: IgG1
Description: Human, cyno and mouse IL-33 FLAG® His (described in Example 1 and Table 21), Human IL-1 alpha and IL-1 beta (R&D Systems) (Table 21) or rat IL-33 (GenScript) were tested for inhibition of human IL-33 binding to DyLight650 labelled 33_640087-7B or DyLight650 labelled 33_640237-2B by adding 5 microlitres of each dilution of sample to a 384 well low volume assay plate (Costar, 3673). […] This was followed by the addition of 2.5 microlitres of a solution containing 0.12 nM biotinylated human IL-33-01 combined with 0.75 nM streptavidin cryptate detection (Cisbio International, 610SAKLB). All dilutions were performed in assay buffer containing 0.8 M potassium fluoride (VWR, 26820.236) and 0.1% bovine serum albumin (BSA, PAA, K05-013) in Dulbeccos PBS (Invitrogen, 14190185). Assay plates were incubated for 4 hours at room temperature followed by 18 hours at 4 degrees Celsius and time resolved fluorescence was read at 620 nm and 665 nm emission wavelengths using an EnVision plate reader (Perkin Elmer). Data were analysed by calculating the 665/620 nm ratio followed by the % Delta F values for each sample. The 665/620 nm ratio was used to correct for sample interference using Equation 1. The % Delta F for each sample was then calculated using Equation 2. The negative control (non-specific binding) was defined by replacing biotinylated human IL-33 combined with streptavidin cryptate detection with streptavidin cryptate detection only. The % Delta F values were subsequently used to calculate % specific binding as described in Equation 3. IC₅₀ values were determined using GraphPad Prism software by curve fitting using a four-parameter logistic equation (Equation 4).

His10/Avi Human IL33-01 [3] = target: T3, His10/Avi Human IL33-01 (human); test: HTRF competition: purified IgG against FLAG-His human ST2 for biotinylated IL33-01, 1 hour incubation
T3 construct: Wild type mature IL-33 with N-terminal 10xHis, Avitag and Factor Xa site; biotinylated by BirA on the Avitag where used biotinylated; reduced form unless treated; also called N-terminal His Avi IL-33; His-Avi human IL-33 wild type
T3 chain: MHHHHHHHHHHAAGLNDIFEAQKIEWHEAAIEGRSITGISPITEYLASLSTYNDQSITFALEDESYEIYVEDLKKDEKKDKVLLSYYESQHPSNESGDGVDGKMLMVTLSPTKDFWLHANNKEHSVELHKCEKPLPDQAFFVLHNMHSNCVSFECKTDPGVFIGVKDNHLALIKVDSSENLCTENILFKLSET

Human IL-33 Flag®His [4] = target: B1; test: cell-based or functional assay
[5] = target: T4, Cynomolgus IL-33 Flag®His (cynomolgus monkey); test: SPR BIAcore 2000, IgG captured on Protein G', IL-33 as analyte, 1:1 Langmuir
T4 construct: C-terminal FLAG 10xHis tag, E. coli; also called Mature Cynomolugus IL-33; cyno IL-33 FH
T4 chain: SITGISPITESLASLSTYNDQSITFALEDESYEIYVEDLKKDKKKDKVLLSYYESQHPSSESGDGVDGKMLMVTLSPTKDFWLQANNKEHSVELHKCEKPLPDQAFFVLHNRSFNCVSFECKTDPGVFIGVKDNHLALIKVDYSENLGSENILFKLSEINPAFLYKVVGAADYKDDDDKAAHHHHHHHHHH
Description: (§2) The binding affinity of purified IgG samples of exemplary binding members to human and cynomolgus IL-33 was determined by surface plasmon resonance using BIAcore 2000 biosensor (BIAcore AB) essentially as described by Karlsson et al., J Immunol Methods 145(1-2):229-40 (1991). In brief, Protein G′ (Sigma Aldrich, P4689) was covalently coupled to the surface of a CM5 sensor chip using standard amine coupling reagents according to manufacturer's instructions (BIAcore). The protein G′ surface was used to capture purified anti-IL-33 antibodies via the Fc domain to provide a surface density of approximately 290 RU per cycle. Human or cynomolgus IL-33 prepared in HBS-EP buffer (BIAcore AB), at a range of concentrations, between 600 nM and 18.75 nM, were passed over the sensor chip surface. The surface was regenerated using two 10 mM Glycine washes of pH 1.7 and pH 1.5 between each injection of antibody. The resulting sensorgrams were evaluated using BIA evaluation 3.1 software and fitted to a 1:1 Langmuir binding model, to provide relative binding data. The binding results (KD, Ka, and Kd) for antibodies IL330002 and IL330004 binding to human or cynomolgus IL-33 are shown in Table 8.

Human IL-33 Flag®His [6] = target: B1; test: as above
Description: as §2

[7] = target: T5, Human IL-33 (Axxora/Adipogen AG-40B-0038) (human, UniProt O95760 112-270, limits assumed); test: cell-based or functional assay
T5 sequence (looked up): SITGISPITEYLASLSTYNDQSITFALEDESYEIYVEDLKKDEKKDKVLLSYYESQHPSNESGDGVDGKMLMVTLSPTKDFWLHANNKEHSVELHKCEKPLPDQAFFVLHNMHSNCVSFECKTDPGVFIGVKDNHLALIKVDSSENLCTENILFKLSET

[8] = target: T4, Cynomolgus IL-33 Flag®His; test: HTRF competition, IgG titrated against biotinylated human ST2-Fc
Method in brief: (§3)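 Antibody dilution series competed with biotinylated human ST2-Fc (added from a 4 nM mix with streptavidin-XL665) for IL-33 (added from a 1.2 nM mix with anti-FLAG cryptate). Buffer was DPBS with 0.8 M KF and 0.1% BSA. Incubation ran 2 h at RT then 16 h at 4 °C, with TRF read at 620/665 nm.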

Human IL-33 Flag®His [9] = target: B1; test: as above
Method in brief: as §3

His10/Avi Human IL33-01 [10] = target: T3, His10/Avi Human IL33-01; test: HTRF competition: purified IgG against FLAG-His human ST2 for biotinylated IL33-01, overnight incubation
[11] = target: T6, Recombinant human IL-33 (construct not named in the example) (human, UniProt O95760 112-270, limits assumed); test: KinExA 3200, IgG at 5 pM and 500 fM equilibrated with IL-33, 25 C
T6 construct: also called Recombinant, enzymatically biotinylated human IL-33 (produced in-house); IL-33 (200 nM)
T6 sequence (looked up): T5 sequence (looked up)
Description: The affinity of the antibody 33_640087-7B was measured by kinetic exclusion assays performed on the KinExA 3200. The sampling beads were prepared by mixing 200 mg of dry UltraLink Biosupport Azlactone beads with 110 μg of IL-33 (as mentioned previously) in 2.5 ml of 50 mM sodium hydrogen bicarbonate pH 8.4 at room temperature for 2 hours with constant agitation. The beads were rinsed and blocked with 10 mg/ml BSA in 1M Tris pH 8.7. Prior to use, the beads were resuspended into D-PBS, 0.02% sodium azide. 33_640087-7B/IL-33 equilibrium mixtures were prepared in sample buffer composed of 1 mg/ml BSA, 0.02% sodium azide in DPBS (Dulbecco's PBS). […] The fluorescent secondary detection reagent was Alexa Fluor 647 goat anti-human-Fc diluted in 1 mg/ml BSA, 0.02% sodium azide, 0.1% Tween 20 in DPBS. The samples were run on the KinExA whilst housed in a temperature controlled cabinet set at 25° C. The data was analysed using the KinExA Pro software version 4.1.11.

Endogenous human IL-33 = target: T7, Endogenous human IL-33 (human, UniProt O95760 1-270, limits assumed); test: cell-based or functional assay
T7 sequence (looked up): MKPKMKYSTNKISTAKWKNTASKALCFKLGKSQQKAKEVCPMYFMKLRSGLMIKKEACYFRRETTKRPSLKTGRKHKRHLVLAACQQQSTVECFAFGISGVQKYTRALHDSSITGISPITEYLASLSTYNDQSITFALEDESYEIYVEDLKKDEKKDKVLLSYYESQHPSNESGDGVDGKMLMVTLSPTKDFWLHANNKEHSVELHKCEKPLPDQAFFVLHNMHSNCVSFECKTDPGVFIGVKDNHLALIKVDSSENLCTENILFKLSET

His10/Avi Human IL33-01 [12] = target: T3, His10/Avi Human IL33-01; test: cell-based or functional assay

B1
IC50 (read off the curve) (33v20064 IgG1 [1]): ~100 nM | IC50 (read off the curve) (33v20064 IgG1 [2]): ~200 nM | IC50 (read off the curve) (33_640087-7B IgG1): ~0.7 nM | IC50 (read off the curve) (33_640237-2B IgG1): ~1 nM

B2
IC50 (read off the curve) (His10/Avi Human IL33-01 [3]): ~1 nM | IC50, human ST2 transfected HeLa NFkB luciferase reporter assay (Human IL-33 Flag®His [4]): 23 nM | Kd [5]: 365 nM | koff [5]: 0.00458 s⁻¹ | kon [5]: 12500 M⁻¹ s⁻¹ | Kd (Human IL-33 Flag®His [6]): 6 nM | koff (Human IL-33 Flag®His [6]): 0.0011 s⁻¹ | kon (Human IL-33 Flag®His [6]): 196000 M⁻¹ s⁻¹ | IC50, Huvec p65/RelA NFκB nuclear translocation [7]: 12 nM | IC50 [8]: 170 nM | IC50 (Human IL-33 Flag®His [9]): 9 nM

B3
IC50 (read off the curve) (His10/Avi Human IL33-01 [10]): ~0.4 nM | Kd [11]: 0.03 pM | IC50, Huvec IL-8 release stimulated by human lung lysate (Endogenous human IL-33): 0.013 nM | IC50 (nM) vs. His Avi IL-33, Huvec IL-8 assay (His10/Avi Human IL33-01 [12]): 0.046 nM
